The target in test [1] is Chloroflexus aurantiacus succinate dehydrogenase (CaSDH) monomer of SdhA, SdhB and SdhC (Chloroflexus aurantiacus J-10-fl (endogenous)). Briefly: native gel or EMSA. On the technique in general: Mobility shift assays separate free from complexed probe on a gel.
The target is the same in test [2]. Briefly: cryo-EM structure.

Results on 1 substance are retold here after PMC12663545.

The term stoichiometry N denotes a count of units in the complex or per binding partner.

With “Chloroflexus aurantiacus succinate dehydrogenase (CaSDH) monomer of SdhA, SdhB and SdhC (complex)”, the stoichiometry N in test [1] and in test [2] was 3 throughout.
